Measured values from doi:10.1101/2023.04.15.537002, “Identification of merozoite secreted repertoire and immuno-pharmacological inhibition of a novel host-parasite interaction to block malarial infection” (bioRxiv, 2023).

B1: recombinant human 14-3-3[…] (eta), full length (246 aa) (natural protein, UniProt Q04917 1-246, looked up)
chain: MGDREQLLQRARLAEQAERYDDMASAMKAVTELNEPLSNEDRNLLSVAYKNVVGARRSSWRVISSIEQKTMADGNEKKLEKVKAYREKIEKELETVCNDVLSLLDKFLIKNCNDFQYESKVFYLKMKGDYYRYLAEVASGEKKNSVVEASEAAYKEAFEISKEQMQPTHPIRLGLALNFSVFYYEIQNAPEQACLLAKQAFDDAIAELDTLNEDSYKDSTLIMQLLRDNLTLWTSDQQDEEAGEGN
modifications: labelled with amine-reactive dye NT-647 NHS (for MST only)
notes: human 14-3-3 protein eta, gene ID YWHAH, full length, 246 aa (738 bp); the discussion names it eta; also called 14-3-3[…] full length; r14-3-3[…]; source: recombinant, codon-optimized gene in pET-28a(+), induced by IPTG, purified (Ni-NTA)
B2: recombinant 14-3-3[…] Target Binding Domain (TBD; 94-246 aa) (domain or fragment, human, UniProt Q04917 94-246, looked up)
chain: ETVCNDVLSLLDKFLIKNCNDFQYESKVFYLKMKGDYYRYLAEVASGEKKNSVVEASEAAYKEAFEISKEQMQPTHPIRLGLALNFSVFYYEIQNAPEQACLLAKQAFDDAIAELDTLNEDSYKDSTLIMQLLRDNLTLWTSDQQDEEAGEGN
notes: also called 14-3-3[…] TBD; source: recombinant, PCR-amplified into pMTSAra, induced by L-arabinose, purified (Ni-NTA)

How the values were obtained:
[1] = molecular target: T1, recombinant PfRhopH3 C-terminal fragment (PfRhopH3C; 617-865 aa) (Plasmodium falciparum, UniProt Q8I395 617-865); experiment: MST; 14-3-3[…] (10 uM) labelled with NT-647 NHS, titrated with different concentrations of PfRhopH3C; conditions: both partners purified
T1 construct: RhopH3 (high molecular weight rhoptry protein 3) of Plasmodium falciparum, C-terminal portion, residues 617-865 (747 bp); also called rPfRhopH3C; rRhopH3C; source: recombinant, codon-optimized gene in pMTSAra, induced by L-arabinose, purified (Ni-NTA)
T1 sequence: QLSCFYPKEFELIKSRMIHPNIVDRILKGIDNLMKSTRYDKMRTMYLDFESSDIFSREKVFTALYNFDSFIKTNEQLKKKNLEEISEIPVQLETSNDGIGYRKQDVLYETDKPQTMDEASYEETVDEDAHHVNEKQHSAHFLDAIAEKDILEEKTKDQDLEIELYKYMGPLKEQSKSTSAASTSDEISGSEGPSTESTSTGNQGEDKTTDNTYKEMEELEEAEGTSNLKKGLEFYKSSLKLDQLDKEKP

[2] = molecular target: T1, recombinant PfRhopH3 C-terminal …; experiment: ELISA; PfRhopH3C (200 ng) coated overnight; overlaid with 14-3-3[…] TBD or full length; detected with anti-14-3-3[…] antibodies, O.D.450; conditions: both partners purified

Binder | Kd [1] [nM] | binding result [2]
B1 | 66 | –
B2 | – | binds
